± gives the half width of the 95% confidence interval.
Columns and labels:
[1] = folding stability dG unfold (combined trypsin and chymotrypsin); higher = more stable
How it was run: (§1)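 Designed mini-proteins with no cysteine and under 80 residues were kept only if AlphaFold2 dimer inter-PAE was above 15. In a PA-tagged cDNA display construct, they were digested with trypsin and chymotrypsin and then sequenced. K50 was inferred by Bayesian fitting of counts, and unfolding free energy was derived per protease or combined against a sequence-predicted unfolded-state K50 and a shared folded-state K50.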

[2] = folding stability dG unfold from chymotrypsin proteolysis; higher = more stable
How it was run: as §1

[3] = folding stability dG unfold from trypsin proteolysis; higher = more stable
How it was run: as §1

Sequence	folding stability dG unfold [1] [kcal/mol]	folding stability dG unfold [2] [kcal/mol]	folding stability dG unfold [3] [kcal/mol]
SAGGKYKVEIIDPKEGEKVFIEIDEETKKITIWNAKTGEKVAEFEIKDLKEGDTITLPNGFVIKIEKESAGG [r13_720_TrROS_Hall]	4.61 ± 0.12	4.67 ± 0.079	3.67 ± 0.14
SAGGLAEEIVEELKERFPGMDVDIDVKEEEDPNNGWVKITIMVRVRNPDDNKPRHEIQLDIEIPVDDSAGGS [r8_207_TrROS]	1.82 ± 0.086	1.89 ± 0.036	1.69 ± 0.056
SAGGLDGDMKVDEMEHDPNNGTYRYKAEAGDQWWTFEMKVVPVIPPIPISISPEDLQEGNWNISIWFSAGGS [r16_809_TrROS]	2.09 ± 0.2	2.39 ± 0.08	1.46 ± 0.05
SAGGLNFEIIEVSPNHIIARFPDAGYIIMAKIKMEWKPKRDPENGKPRYEPKFKIDIHVIPLKPGQPISAGG [r13_322_TrROS]	4.09 ± 0.12	4.66 ± 0.17	3.27 ± 0.09
SAGGLTVVSVDPSTNTITIKLGNKDIEITVPPDRPPEVTFTRDPSGTYTITITTEGSTTTYTIPLSQLPSAG [r5_500_JUSTAS]	2.85 ± 0.07	3.143 ± 0.015	2.45 ± 0.052
SAGGLVIPVTFMFQDWEEAEEFANEIARELANLYPGRPVKIDVEVEPIRNPNNGKRYYMVEATIEIDPSAGG [r13_545_TrROS]	2.6 ± 0.15	2.77 ± 0.033	2.01 ± 0.059
SAGGLVLPPDAVVTGTLTAPRPDGSTVTVRARVRFPPRPPPPPLVLVRLPDGSVRPVRSLEEARRLASAGGS [r16_580_TrMRF]	3.49 ± 0.1	3.76 ± 0.059	3.16 ± 0.11
SAGGLYVFDKNGKIISKVPKVEPIPIVITFPDGEKVLFEKYPGLNIIVVSYEGENPEKVKEAVKKILSSAGG [r13_701_TrMRF]	0.977 ± 0.13	1.06 ± 0.14	0.835 ± 0.075
SAGGMATITVTSDGVLKVTFVDPATGSPVKTIPLPLSEVEQLGAEKGSPLSLEEILKELGYPTEITLGSAGG [r13_836_JUSTAS]	1.51 ± 0.045	1.48 ± 0.008	1.52 ± 0.059
SAGGMDPDDLKGMPPEQAKDIVRDWIREYMQERNPNMPPGMKITDVPVEVRDPDNGKEIEVKVEIENYSAGG [r13_555_TrROS]	-0.242 ± 0.33	-0.00917 ± 0.33	-0.936 ± 0.37
SAGGMEEVIEEAIEAAKKGENVTITLPASVDPEVVLKALEEASGLKVTPISVTPLPDGTLRIEVKIESAGGS [r16_318_JUSTAS]	5.08 ± 0.54	4.24 ± 0.14	4.24 ± 0.19
SAGGMEFTPDQFLIIVLGLPDDTLEVAIIPAGDIEKAFEELGFPLEEVDILEIVEADLTPEEAEELAESAGG [r13_850_TrMRF]	1.68 ± 0.088	1.55 ± 0.046	1.81 ± 0.1
SAGGMELFELEFEAEITPLEEPDKPVPVKIRILKRVEPVPNEPGFKVHYRALLENEEGVVPFEFTLDSAGGS [r16_300_TrMRF]	1.42 ± 0.085	1.74 ± 0.085	0.998 ± 0.055
SAGGMETWRIKVDGKEIEVTVEDGKITVTFADGTKVEITLEEGETPEEVAKRLAEELGADKVEIEKVPSAGG [r13_852_TrROS_Hall]	3.3 ± 0.19	3.31 ± 0.078	3.38 ± 0.48
SAGGMEVTLRITAEGPEQLEKIQEILDELDVEEVNPTENEVEFRFPGPEPLAKLKEIAEELGLKVEGSAGGS [r16_88_TrMRF]	-0.377 ± 0.25	-0.635 ± 0.28	-0.457 ± 0.23
SAGGMEYDPETKTFHLHVPGGNLPELREAIENAPDRLVTIEVEDPLTDKPRLFTLPAEEARKFLEAGSAGGS [r16_797_TrMRF]	-0.254 ± 0.095	-0.455 ± 0.25	-0.182 ± 0.12
SAGGMGTPFTTLTVTLEFPSSESLEEAKEKAEELAEELRRAHPEVVSIEIEVSKEGDTYKVKLTVTIASSAG [r5_446_JUSTAS]	4.7 ± 0.13	4.72 ± 0.11	4.37 ± 0.22
SAGGMHHLEIYRFEDRKLVVLHLEDKPVVIEVEPGLTEEEAAEKAIEALKEAFPDKEIVIDSVEVKEESAGG [r13_884_TrMRF]	0.217 ± 0.11	0.41 ± 0.11	-0.0489 ± 0.064
SAGGMIEIIPNPPIIIVRDASTNEISVYNIDAPPGSITRVELTSDGSILIYNPATGKVLVLPKSDIKSAGGS [r16_410_TrMRF]	1.62 ± 0.077	1.74 ± 0.071	1.33 ± 0.043
SAGGMIEVTIPLEEYFDENGNPTEEAKKKIEEAKKKAEELKKKGEPAEVKVTVVEPEPYVGPDNPELVSAGG [r13_731_JUSTAS]	0.652 ± 0.28	0.569 ± 0.059	0.278 ± 0.29
SAGGMIIIKFKTKEQAKKAIEAAKKGKEIEITLKDGKKIKAKVVKVEEKPNYVYLVIKTEDGKEIKFSAGGS [r16_254_TrROS_Hall]	2.31 ± 0.12	2.42 ± 0.038	2.16 ± 0.086
SAGGMIKIEKEEDGTLRITIVVPEKEEEAEELAEKLKEKLKELGVEEVKIEVVEKDGKVVVEIEVKKSAGGS [r8_113_TrROS_Hall]	2.53 ± 0.13	2.77 ± 0.16	2.29 ± 0.1
SAGGMIKPGEKVKVRAVLRVGEEEEEIELELPLPENATVEDIAQAILDLIPEEPRKDAEVDIEVEPVSAGGS [r16_321_TrMRF]	0.93 ± 0.14	1.21 ± 0.094	-0.468 ± 0.3
SAGGMIKSEKLIKSPENETIKVETTIILDENGNPKSVKKKITVYKNGKPVKEMEISSIGNEIEIKKPSAGGS [r16_35_JUSTAS]	1.14 ± 0.21	1.48 ± 0.15	-0.308 ± 0.65
SAGGMIPPEELAARAEAVREAAPASGEVVRTTVVLPSPGLVTRVDLVYEPGAGRITVESVSEVPPELLSAGG [r13_37_JUSTAS]	0.461 ± 0.046	0.414 ± 0.032	0.496 ± 0.027
SAGGMIPPEKLEEIAKKIAEETEPLGKVVKHLFVDPLEDEVVIIELTVYPGPKKIEIKEIKVYPPEELSAGG [r13_37_TrMRF]	0.223 ± 0.16	0.251 ± 0.034	0.0241 ± 0.084

— the supplement of paper PMC12764529
